We go through three molecules from publication PMC12355267, “Human Helicase DDX5 is Hijacked by SARS-CoV‑2 Nsp13 Helicase to Enhance RNA Unwinding” (ACS Omega, 2025).

As usually defined, the IC50 is the concentration needed to halve the response being measured. The term Kd denotes a measure of binding affinity in units of concentration. Read a high Kd as weaker binding.

Assay [1] addresses T1, SARS-CoV-2 Nsp13 helicase (SARS-CoV-2, UniProt P0DTD1 5325-5925).
T1 construct: also called Nsp13 helicase of SARS-CoV-2
The experiment in a line: MST. To be noted: both partners purified.

Assay [2] concerns the target T1, SARS-CoV-2 Nsp13 helicase. The settings on record: both partners purified.

B1: RecA1 domain of DDX5 (1–303) (domain or fragment, human, UniProt P17844 1-303, looked up)
chain: MSGYSSDRDRGRDRGFGAPRFGGSRAGPLSGKKFGNPGEKLVKKKWNLDELPKFEKNFYQEHPDLARRTAQEVETYRRSKEITVRGHNCPKPVLNFYEANFPANVMDVIARQNFTEPTAIQAQGWPVALSGLDMVGVAQTGSGKTLSYLLPAIVHINHQPFLERGDGPICLVLAPTRELAQQVQQVAAEYCRACRLKSTCIYGGAPKGPQIRDLERGVEICIATPGRLIDFLECGKTNLRRTTYLVLDEADRMLDMGFEPQIRKIVDQIRPDRQTLMWSATWPKEVRQLAEDFLKDYIHINIG
notes: human DDX5, RecA1 domain with the N-terminal region, residues 1-303; probably as DDX5ΔC (pETM-13, His-tag), surmised; source: E. coli (cloned from the gene optimized for E. coli expression), purified
As to B1, the IC50 in assay [1] amounted to 16.2 µM.

B2: labeled RecA1 domain of DDX5 (domain or fragment, human, UniProt P17844 1-303, looked up)
chain: MSGYSSDRDRGRDRGFGAPRFGGSRAGPLSGKKFGNPGEKLVKKKWNLDELPKFEKNFYQEHPDLARRTAQEVETYRRSKEITVRGHNCPKPVLNFYEANFPANVMDVIARQNFTEPTAIQAQGWPVALSGLDMVGVAQTGSGKTLSYLLPAIVHINHQPFLERGDGPICLVLAPTRELAQQVQQVAAEYCRACRLKSTCIYGGAPKGPQIRDLERGVEICIATPGRLIDFLECGKTNLRRTTYLVLDEADRMLDMGFEPQIRKIVDQIRPDRQTLMWSATWPKEVRQLAEDFLKDYIHINIG
modifications: fluorescent label (dye and site not stated)
notes: human DDX5, RecA1 domain with the N-terminal region, residues 1-303; also called fluorescent RecA1; source: E. coli (cloned from the gene optimized for E. coli expression), purified, then labeled
Take B2: binding in assay [2] was put at a Kd of 9.1 ± 1.3 µM.

B3: full-length DDX5 (flDDX5) (enzyme, human, UniProt P17844 1-614, looked up)
chain: MSGYSSDRDRGRDRGFGAPRFGGSRAGPLSGKKFGNPGEKLVKKKWNLDELPKFEKNFYQEHPDLARRTAQEVETYRRSKEITVRGHNCPKPVLNFYEANFPANVMDVIARQNFTEPTAIQAQGWPVALSGLDMVGVAQTGSGKTLSYLLPAIVHINHQPFLERGDGPICLVLAPTRELAQQVQQVAAEYCRACRLKSTCIYGGAPKGPQIRDLERGVEICIATPGRLIDFLECGKTNLRRTTYLVLDEADRMLDMGFEPQIRKIVDQIRPDRQTLMWSATWPKEVRQLAEDFLKDYIHINIGALELSANHNILQIVDVCHDVEKDEKLIRLMEEIMSEKENKTIVFVETKRRCDELTRKMRRDGWPAMGIHGDKSQQERDWVLNEFKHGKAPILIATDVASRGLDVEDVKFVINYDYPNSSEDYIHRIGRTARSTKTGTAYTFFTPNNIKQVSDLISVLREANQAINPKLLQLVEDRGSGRSRGRGGMKDDRRDRYSAGKRGGFNTFRDRENYDRGYSSLLKRDFGAKTQNGVYSAANYTNGSFGSNFVSAGIQTSFRTGNPTGTYQNGYDSTQQYGSNVPNMHNGMNQQAYAYPATAAAPMIGYPMPTGYSQ
notes: human DEAD-box helicase DDX5, native full-length gene in pET30a, 614 residues (1-614); also called full-length DDX5 (1–614); unlabeled flDDX5
Regarding B3, 0.325 µM corresponded to half-maximal inhibition in assay [1] (IC50).
